The text below walks through data of US20260103513A1 (HEFEI TG IMMUNOPHARMA, published 2026).

Test [1] deals with T1, Human TIGIT-His tag fusion protein (human, UniProt Q495A1 22-141).
T1 construct: extracellular domain; Bought (Acro); also called TIGIT extracellular domain-His tag fusion protein; TIGIT protein; not shown: His tag
T1 sequence (looked up): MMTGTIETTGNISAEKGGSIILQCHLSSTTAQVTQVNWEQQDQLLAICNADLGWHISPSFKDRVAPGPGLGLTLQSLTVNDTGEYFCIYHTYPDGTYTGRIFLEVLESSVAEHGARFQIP
As to the kind of experiment: ELISA, human TIGIT-His coated, HRP anti-human IgG, OD450.

For test [2], the target named is T2, Cynomolgus monkey TIGIT-His tag fusion protein (cynomolgus monkey, UniProt A0A7N9I9V4 89-209).
T2 construct: extracellular domain; Bought (Acro); also called TIGIT extracellular domain-His tag fusion protein; TIGIT protein; not shown: His tag
As to the kind of experiment: ELISA, cynomolgus TIGIT-His coated, HRP anti-human IgG, OD450. (In general: An ELISA detects its analyte on a solid surface through an enzyme-linked reagent.)

For test [3], the target named is T1, Human TIGIT-His tag fusion protein. As to the kind of experiment: competition ELISA on coated TIGIT-His; blocked ligand CD155-Biotin; the sheet does not name the species of the TIGIT-His.
Test [4] deals with T3, TIGIT protein overexpressed on cells (Homo sapiens (Human), UniProt Q495A1 22-244).
T3 construct: also called CHO-K1-TIGIT
T3 sequence: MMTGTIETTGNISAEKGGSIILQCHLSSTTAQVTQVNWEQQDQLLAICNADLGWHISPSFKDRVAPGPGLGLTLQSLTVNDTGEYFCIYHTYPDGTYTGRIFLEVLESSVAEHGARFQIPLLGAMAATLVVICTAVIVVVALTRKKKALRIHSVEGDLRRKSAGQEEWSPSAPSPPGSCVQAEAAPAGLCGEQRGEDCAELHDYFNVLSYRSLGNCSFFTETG
Put plainly: flow cytometry on 293T-TIGIT cells, Alexa-647 anti-human Fc, MFI.

The target in test [5] is T3, TIGIT protein overexpressed on cells. Put plainly: flow cytometry competition on 293T-TIGIT cells; blocked ligand CD155-mIgG2a-Fc, APC anti-mouse IgG2a, MFI. (In general: Flow cytometry measures light scatter and fluorescence of single cells or particles in a stream.)
Test [6] deals with T4, recombinant TIGIT extracellular domain-Fc fusion protein.
T4 construct: Covalently coupled to the CM5 chip in the Biacore assay; also called TIGIT-Fc
Put plainly: SPR, Biacore T200, TIGIT-Fc amine-coupled on CM5, antibody injected, 1:1 Langmuir model. The procedure:
The Biacore method is a well-established objective assay for detecting the affinity and kinetics between proteins. The TIGIT antibody of the present disclosure was analyzed using Biacore T200 to characterize its affinity and binding kinetics.
The TIGIT extracellular domain-Fc fusion protein (TIGIT-Fc) was covalently attached to a CM5 (GE) chip using a standard amino coupling method. A series of TIGIT antibodies diluted in PBS buffer at a concentration gradient was then injected in cycles, followed by regeneration with 10 mM NaOH solution. The antigen-antibody binding kinetics were monitored for 3 minutes, followed by dissociation kinetics for 10 minutes. The resulting data were analyzed using GE's BIAevaluation software in a 1:1 (Langmuir) binding model.

Test [7] has as its target T3, TIGIT protein overexpressed on cells. As to the kind of experiment: flow cytometry on CHO-K1-TIGIT cells, binding percentage (%).
Test [8] has the same target. Put plainly: flow cytometry competition on CHO-K1-TIGIT cells; blocked ligand CD155-mIgG2a-Fc, binding percentage (%).

B1: H401LV2-hIgG1 (antibody)
heavy: not shown
light: DIVMTQSPSSMSTSVGDRVTITCRASQDVFNQVAWYQQKPGKSPKLLIYSASFRYTGVPDRFSGSGSGTDFTFTISSVQAEDFATYYCQQHYSTPLTFGAGTKLELKRTVAAPSVFIFPPSDEQLKSGTASVVCLLNNFYPREAKVQWKVDNALQSGNSQESVTEQDSKDSTYSLSSTLTLSKADYEKHKVYACEVTHQGLSSPVTKSFNRGEC
notes: Wild-type human IgG1 constant region, human kappa light chain (H401LV2-hK); also called TIGIT antibody H401LV2
On to B1, for which the figures for the “EC50 (read off the curve)” value in test [1], in test [2] and in test [4] were around 0.04 µg/mL, around 0.02 µg/mL and around 0.4 µg/mL, respectively. The “IC50 (read off the curve)” value in test [3] was around 0.8 µg/mL; in test [5], around 0.5 µg/mL.

B2: H401LV2-hIgG4S228P (antibody)
heavy: not shown
light: B1 light
notes: also called TIGIT antibody H401LV2
Turning to B2, the entries for the “EC50 (read off the curve)” value in test [1] and in test [2] were around 0.04 µg/mL and around 0.02 µg/mL, respectively. Besides, the “IC50 (read off the curve)” value was around 0.8 µg/mL in test [3] and around 0.5 µg/mL in test [5].

B3: H401LV2-hIgG1LALA (antibody)
heavy: not shown
light: B1 light
notes: as for B2
On to B3, for which the EC50 (read off the curve) (usually the concentration needed to bring the measured effect to its halfway point) in test [1] was around 0.04 µg/mL; in test [2] it was around 0.02 µg/mL; in test [4], around 0.6 µg/mL. Further, the entries for the “IC50 (read off the curve)” value in test [3] and in test [5] were around 0.8 µg/mL and around 0.5 µg/mL, respectively.

B4: Hu4A501 (antibody, V domains shown)
VH: QVQLQESGPGLVKPSQTLSLTCTVTGSSITSDYAWNWIRQFPGKKLEWMGYITYSGRTTYNPSLKSRITISRDTSKNQFSLKLSSVTAADTATYYCARWGLLRRYFDYWGQGTLLTVSS
VL: DIVMTQSPSSMSTSVGDRVTITCRASQDVFTAVAWYQQKPGKSPKLLIYSASFRYTGVPDRFSGSGSGTDFTFTISSVQAEDFATYYCQQHYSTPLTFGAGTKLELKR
notes: also called parental antibody Hu4A501; parent antibody Hu4A501
B4: in test [2], the “EC50 (read off the curve)” value was around 0.04 µg/mL. In addition, in test [3], the “IC50 (read off the curve)” value was around 0.8 µg/mL. In addition, in test [6], the Kd (usually the concentration at which binding is half-saturated) was 5.06 nM; the koff (usually the rate constant with which the complex falls apart) is 0.000501 s⁻¹; the kon (as a rule, the second-order rate constant of association) came to 98900 M⁻¹ s⁻¹.

B5: H401LV2 (antibody, V domains shown)
VH: B4 VH
VL: DIVMTQSPSSMSTSVGDRVTITCRASQDVFNQVAWYQQKPGKSPKLLIYSASFRYTGVPDRFSGSGSGTDFTFTISSVQAEDFATYYCQQHYSTPLTFGAGTKLELK
notes: also called matured TIGIT antibody H401LV2
In the case of B5, in test [6], the Kd is at most 0.00508 nM, the koff was at most 1e-06 s⁻¹ and the kon came out at 197000 M⁻¹ s⁻¹.

B6: 22G2 (antibody, mouse IgG2a, kappa, V domains shown)
VH: QVQLQESGPGLVKPSETLSLTCTVSGGSVSSGIYYWSWIRQPPGKGLEWIGYIYYSGSTNYNPSLKSRVTISVDTSKNQFSLKLSSVTAADTAVYYCARDYYVSGNYYNVDYYFFGVDVWGQGTTVTVSS
VL: EIVLTQSPATLSLSPGERATLSCRASQSVSSYLAWYQQKPGQAPRLLIYDASNRATGIPARFSGSGSGTDFTLTISSLEPEDFAVYYCQQRSNWPPLFTFGPGTKVDIKR
notes: Comparator, mouse IgG2a heavy and mouse kappa light constant regions; the printed heavy chain reads VVVAVSE (as in the D265A form) although it is named only mIgG2a; also called 22G2-mIgG2a; 22G2 antibody
Regarding B6, in test [7], the “EC50 (read off the curve)” value was around 0.2 µg/mL. Also, the “IC50 (read off the curve)” value in test [8] was around 0.2 µg/mL.

B7: 4.1D3 (antibody, mouse IgG2a, kappa, V domains shown)
VH: EVQLQQSGPGLVKPSQTLSLTCAISGDSVSSNSAAWNWIRQSPSRGLEWLGKTYYRFKWYSDYAVSVKGRITINPDTSKNQFSLQLNSVTPEDTAVFYCTRESTTYDLLAGPFDYWGQGTLVTVSS
VL: not shown
notes: Comparator, made with mouse IgG2a heavy and mouse kappa light constant regions; also called 4.1D3-mIgG2a; 4.1D3 antibody
As for B7, the “EC50 (read off the curve)” value in test [7] is around 0.1 µg/mL. In test [8], the “IC50 (read off the curve)” value is around 0.3 µg/mL.

B8: H401LV2-mIgG2a (antibody)
heavy: QVQLQESGPGLVKPSQTLSLTCTVTGSSITSDYAWNWIRQFPGKKLEWMGYITYSGRTTYNPSLKSRITISRDTSKNQFSLKLSSVTAADTATYYCARWGLLRRYFDYWGQGTLLTVSSAKTTAPSVYPLAPVCGDTTGSSVTLGCLVKGYFPEPVTLTWNSGSLSSGVHTFPAVLQSDLYTLSSSVTVTSSTWPSQSITCNVAHPASSTKVDKKIEPRGPTIKPCPPCKCPAPNLLGGPSVFIFPPKIKDVLMISLSPIVTCVVVDVSEDDPDVQISWFVNNVEVHTAQTQTHREDYNSTLRVVSALPIQHQDWMSGKEFKCKVNNKDLPAPIERTISKPKGSVRAPQVYVLPPPEEEMTKKQVTLTCMVTDFMPEDIYVEWTNNGKTELNYKNTEPVLDSDGSYFMYSKLRVEKKNWVERNSYSCSVVHEGLHNHHTTKSFSRTPGK
light: DIVMTQSPSSMSTSVGDRVTITCRASQDVFNQVAWYQQKPGKSPKLLIYSASFRYTGVPDRFSGSGSGTDFTFTISSVQAEDFATYYCQQHYSTPLTFGAGTKLELKRADAAPTVSIFPPSSEQLTSGGASVVCFLNNFYPKDINVKWKIDGSERQNGVLNSWTDQDSKDSTYSMSSTLTLTKDEYERHNSYTCEATHKTSTSPIVKSFNRNEC
notes: Mouse IgG2a constant region, mouse kappa light chain (H401LV2-mK); also called TIGIT antibody H401LV2-mIgG2a
B8: the “EC50 (read off the curve)” value in test [7] was around 0.05 µg/mL. The “IC50 (read off the curve)” value in test [8] was around 0.2 µg/mL.
